In series [1] the target is T1, PriA (D. radiodurans) (Deinococcus radiodurans R1, UniProt P0DXX8 1-925).
T1 sequence: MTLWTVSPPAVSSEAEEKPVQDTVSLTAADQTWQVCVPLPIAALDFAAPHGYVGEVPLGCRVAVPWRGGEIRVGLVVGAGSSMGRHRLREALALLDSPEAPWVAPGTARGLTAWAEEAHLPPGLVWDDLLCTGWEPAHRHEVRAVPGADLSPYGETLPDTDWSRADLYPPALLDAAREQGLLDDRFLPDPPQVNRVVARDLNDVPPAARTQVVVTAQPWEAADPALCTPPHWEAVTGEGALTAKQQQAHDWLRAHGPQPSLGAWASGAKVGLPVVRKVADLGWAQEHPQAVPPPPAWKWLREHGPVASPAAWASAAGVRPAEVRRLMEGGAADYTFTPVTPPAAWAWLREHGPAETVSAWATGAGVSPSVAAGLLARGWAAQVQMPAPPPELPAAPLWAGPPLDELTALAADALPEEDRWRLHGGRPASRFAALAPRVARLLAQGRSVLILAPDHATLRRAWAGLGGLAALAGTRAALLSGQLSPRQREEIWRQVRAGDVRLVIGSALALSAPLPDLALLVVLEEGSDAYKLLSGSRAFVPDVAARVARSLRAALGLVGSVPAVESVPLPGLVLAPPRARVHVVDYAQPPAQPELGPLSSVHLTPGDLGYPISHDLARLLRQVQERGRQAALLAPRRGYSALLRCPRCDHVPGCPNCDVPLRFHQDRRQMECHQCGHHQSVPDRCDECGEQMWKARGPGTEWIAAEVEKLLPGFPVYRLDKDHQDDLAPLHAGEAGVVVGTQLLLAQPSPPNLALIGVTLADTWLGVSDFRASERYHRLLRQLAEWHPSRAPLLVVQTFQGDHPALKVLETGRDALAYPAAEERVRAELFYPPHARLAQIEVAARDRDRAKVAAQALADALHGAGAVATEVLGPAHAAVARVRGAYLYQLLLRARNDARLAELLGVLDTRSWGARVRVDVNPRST
As to the kind of experiment: fluorescence anisotropy; 1 mM Mg2+, no ATP listed; apparent Kd (half-bound); 20 mM Tris-HCl pH 8, 15% glycerol, 50 mM NaCl, 1 mM MgCl2, 1 mM 2-mercaptoethanol, 0.1 g/L BSA, 1 nM DNA, 25 C. To be noted: protein: recombinant, tags: N-terminal His6 removed by thrombin, leaving Gly-Ser-His before Met1.

The target of series [2] is PriA (E. coli) (Escherichia coli K12, UniProt P17888 1-732). The series is described as above. To be noted: protein: recombinant.
Setting [3] is: label: 3' fluorescein on S8 (nascent lagging strand), three-way fork without gap: S5[1-25]:S6[26-50] parental, S5[26-50]:S7 leading, S6[1-25]:S8 lagging, blunt arms.
[4] abbreviates: label: 3' fluorescein, single strand.

Consider 2 molecules from publication PMC4504706, “Deinococcus radiodurans PriA is a Pseudohelicase”.

Chain of PriA (E. coli) (P17888 whole entry): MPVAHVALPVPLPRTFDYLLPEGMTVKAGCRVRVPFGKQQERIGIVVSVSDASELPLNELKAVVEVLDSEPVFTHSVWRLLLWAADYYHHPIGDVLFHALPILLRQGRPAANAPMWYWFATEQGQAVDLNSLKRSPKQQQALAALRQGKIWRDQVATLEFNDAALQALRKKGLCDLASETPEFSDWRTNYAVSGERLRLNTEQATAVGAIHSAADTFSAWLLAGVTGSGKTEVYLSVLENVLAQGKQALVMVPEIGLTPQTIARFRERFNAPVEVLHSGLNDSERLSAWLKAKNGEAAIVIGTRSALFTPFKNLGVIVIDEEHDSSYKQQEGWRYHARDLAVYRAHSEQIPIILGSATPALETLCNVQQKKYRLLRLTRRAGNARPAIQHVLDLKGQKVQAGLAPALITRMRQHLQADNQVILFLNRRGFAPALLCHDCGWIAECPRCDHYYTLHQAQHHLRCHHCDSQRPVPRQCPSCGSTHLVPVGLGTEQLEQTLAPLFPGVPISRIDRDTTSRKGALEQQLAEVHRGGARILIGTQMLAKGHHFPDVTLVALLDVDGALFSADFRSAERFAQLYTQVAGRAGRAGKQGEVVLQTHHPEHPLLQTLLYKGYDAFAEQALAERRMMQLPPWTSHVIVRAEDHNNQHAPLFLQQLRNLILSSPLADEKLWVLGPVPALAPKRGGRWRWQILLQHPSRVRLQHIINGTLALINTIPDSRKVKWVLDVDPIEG

B1: fully-duplex fork DNA, 25 bp arms (structured_DNA)
DNA 1: GTCGGATCCTCTAGACAGCTCCATGATCACTGGCACTGGTAGAATTCGGC
DNA 2: AACGTCATAGACGATTACATTGCTACATGGAGCTGTCTAGAGGATCCGAC
DNA 3: GCCGAATTCTACCAGTGCCAGTGAT
DNA 4: TAGCAATGTAATCGTCTATGACGTT
B1: the Kd amounted to 108 ± 1.7 nM in series [1] (setting [3]) and 52.1 ± 1 nM in series [2] (setting [3]).
For AAGCACAATTACCCACGC (ssDNA) [18-base mixed-sequence ssDNA], the Kd in series [1] (setting [4]) is 215 ± 17 nM; in series [2] (setting [4]) it was 129 ± 11.9 nM.
